Measurements as given in ChEMBL document CHEMBL4038281, “Competitive protein tyrosine phosphatase 1B (PTP1B) inhibitors, prenylated caged xanthones from Garcinia hanburyi and their inhibitory mechanism” (Bioorg Med Chem, 2017).

Assays:
[1] = substrate: CC(C)=CCC[C@]1(C)C=Cc2c(O)c3c(c(CC=C(C)C)c2O1)O[C@]12C(=C[C@@H]4C[C@H]1C(C)(C)O[C@@]2(C/C=C(/C)C(=O)O)C4=O)C3=O; details: Homo sapiens; 12.4 uM
[2] = substrate: CC(C)=CCC[C@]1(C)C=Cc2c(O)c3c(c(CC=C(C)C)c2O1)O[C@]12C(=C[C@@H]4C[C@H]1C(C)(C)O[C@@]2(C/C=C(/C)C(=O)O)C4=O)C3=O; details: Homo sapiens; 24.8 uM
[3] = substrate: CC(C)=CCC[C@]1(C)C=Cc2c(O)c3c(c(CC=C(C)C)c2O1)O[C@]12C(=C[C@@H]4C[C@H]1C(C)(C)O[C@@]2(C/C=C(/C)C(=O)O)C4=O)C3=O; details: Homo sapiens; 49.6 uM
[4] = substrate: CC(C)=CCC[C@]1(C)C=Cc2c(O)c3c(c(CC=C(C)C)c2O1)O[C@]12C(=C[C@@H]4C[C@H]1C(C)(C)O[C@@]2(C/C=C(/C)C(=O)O)C4=O)C3=O; details: Homo sapiens; 12.4 uM; remark: listed apart in the source
Description: Competitive inhibition of recombinant human PTP1B (1 to 322 residues) expressed in Escherichia coli assessed as substrate Km at 12.4 uM using pNPP as substrate by Lineweaver-Burk plot analysis

[5] = substrate: CC(C)=CCC[C@]1(C)C=Cc2c(O)c3c(c(CC=C(C)C)c2O1)O[C@]12C(=C[C@@H]4C[C@H]1C(C)(C)O[C@@]2(C/C=C(/C)C(=O)O)C4=O)C3=O; details: Homo sapiens; 24.8 uM; remark: listed apart in the source
Description: Competitive inhibition of recombinant human PTP1B (1 to 322 residues) expressed in Escherichia coli assessed as substrate Km at 24.8 uM using pNPP as substrate by Lineweaver-Burk plot analysis

[6] = substrate: CC(C)=CCC[C@]1(C)C=Cc2c(O)c3c(c(CC=C(C)C)c2O1)O[C@]12C(=C[C@@H]4C[C@H]1C(C)(C)O[C@@]2(C/C=C(/C)C(=O)O)C4=O)C3=O; details: Homo sapiens; 49.6 uM; remark: listed apart in the source
Description: Competitive inhibition of recombinant human PTP1B (1 to 322 residues) expressed in Escherichia coli assessed as substrate Km at 49.6 uM using pNPP as substrate by Lineweaver-Burk plot analysis

B1: Tyrosine-protein phosphatase non-receptor type 1 (Homo sapiens), P18031 (protein)
chain: MEMEKEFEQIDKSGSWAAIYQDIRHEASDFPCRVAKLPKNKNRNRYRDVSPFDHSRIKLHQEDNDYINASLIKMEEAQRSYILTQGPLPNTCGHFWEMVWEQKSRGVVMLNRVMEKGSLKCAQYWPQKEEKEMIFEDTNLKLTLISEDIKSYYTVRQLELENLTTQETREILHFHYTTWPDFGVPESPASFLNFLFKVRESGSLSPEHGPVVVHCSAGIGRSGTFCLADTCLLLMDKRKDPSSVDIKKVLLEMRKFRMGLIQTADQLRFSYLAVIEGAKFIMGDSSVQDQWKELSHEDLEPPPEHIPPPPRPPKRILEPHNGKCREFFPNHQWVKEETQEDKDCPIKEEKGSPLNAAPYGIESMSQDTEVRSRVVGGSLRGAQAASPAKGEPSLPEKDEDHALSYWKPFLVNMCVATVLTAGAYLCYRFLFNSNT
In the case of B1, the Vmax (optical density/minute) [1] is reported as 12.6, the Vmax (optical density/minute) [2] is reported as 12.9 and the Vmax (optical density/minute) [3] is reported as 13.7. The Km [4] was 4.46 mM, the Km [5] was 6.84 mM and the Km [6] was 12.7 mM.
